Measured values from patent publication US20200147235A1 (AbbVie / Abbott, published 2020).
Read-outs that look alike come from different tables or passages of the source.

T1: Human CD98 ECD with C-terminal His-tag (human, UniProt P08195 105-529)
T1 construct: also called huCD98 ECD; recombinant human CD98 extracellular domain
T1 sequence: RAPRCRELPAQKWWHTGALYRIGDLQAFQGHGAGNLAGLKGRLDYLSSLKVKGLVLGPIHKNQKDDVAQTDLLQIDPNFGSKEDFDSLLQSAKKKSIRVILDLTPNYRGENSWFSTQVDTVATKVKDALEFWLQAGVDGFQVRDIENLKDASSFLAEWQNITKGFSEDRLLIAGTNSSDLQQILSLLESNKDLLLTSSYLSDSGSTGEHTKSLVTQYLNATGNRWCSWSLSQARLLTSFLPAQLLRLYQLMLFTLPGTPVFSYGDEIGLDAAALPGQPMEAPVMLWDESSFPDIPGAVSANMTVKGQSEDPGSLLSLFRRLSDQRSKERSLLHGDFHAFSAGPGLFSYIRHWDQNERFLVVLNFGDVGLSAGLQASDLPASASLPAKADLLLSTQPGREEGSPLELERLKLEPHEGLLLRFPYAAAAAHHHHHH

T2: Cynomolgus monkey CD98 ECD with C-terminal His-tag (cynomolgus monkey, UniProt P08195 105-529 (human entry))
T2 construct: also called cyCD98 ECD; recombinant cynomolgus monkey CD98 extracellular domain
T2 chain: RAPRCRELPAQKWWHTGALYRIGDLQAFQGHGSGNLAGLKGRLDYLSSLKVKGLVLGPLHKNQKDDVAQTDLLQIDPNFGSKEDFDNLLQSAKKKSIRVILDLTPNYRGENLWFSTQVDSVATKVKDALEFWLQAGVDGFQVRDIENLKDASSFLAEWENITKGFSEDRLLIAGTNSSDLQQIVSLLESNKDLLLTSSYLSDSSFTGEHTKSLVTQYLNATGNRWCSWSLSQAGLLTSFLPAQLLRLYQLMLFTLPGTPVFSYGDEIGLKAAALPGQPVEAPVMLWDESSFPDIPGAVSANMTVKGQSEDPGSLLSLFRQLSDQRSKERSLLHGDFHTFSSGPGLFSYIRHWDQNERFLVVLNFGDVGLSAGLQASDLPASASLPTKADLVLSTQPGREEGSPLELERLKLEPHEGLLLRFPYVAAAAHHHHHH

T3: Human CD98 expressed on stably transfected CHO-K1 cells (human)
T3 construct: also called huCD98; CD98 heavy chain
T3 chain: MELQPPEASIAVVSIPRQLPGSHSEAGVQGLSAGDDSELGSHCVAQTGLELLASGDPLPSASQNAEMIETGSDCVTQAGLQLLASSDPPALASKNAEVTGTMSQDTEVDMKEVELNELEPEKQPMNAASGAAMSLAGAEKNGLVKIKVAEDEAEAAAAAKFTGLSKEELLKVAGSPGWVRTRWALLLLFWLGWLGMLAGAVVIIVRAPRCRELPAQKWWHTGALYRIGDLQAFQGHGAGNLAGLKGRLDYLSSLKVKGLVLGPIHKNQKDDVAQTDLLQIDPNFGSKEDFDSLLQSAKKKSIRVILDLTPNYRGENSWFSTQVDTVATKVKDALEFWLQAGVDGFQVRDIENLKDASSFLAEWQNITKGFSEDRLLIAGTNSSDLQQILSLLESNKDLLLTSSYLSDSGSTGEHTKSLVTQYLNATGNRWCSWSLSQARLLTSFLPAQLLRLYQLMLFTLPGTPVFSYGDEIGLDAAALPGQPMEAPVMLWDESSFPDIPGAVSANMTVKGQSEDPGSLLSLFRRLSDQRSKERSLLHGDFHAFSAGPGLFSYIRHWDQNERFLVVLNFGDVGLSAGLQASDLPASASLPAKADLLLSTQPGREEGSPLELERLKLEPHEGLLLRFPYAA


How the values were obtained:
[1] = target: T1, Human CD98 ECD with C-terminal His-tag; assay: SPR Biacore, anti-Fc capture of mAb, CD98 ECD analyte
Protocol: (§1) The binding kinetics of these purified mouse and rat monoclonal anti-CD98 antibodies for purified recombinant CD98 protein (extracellular domain. ECD) were determined by surface plasmon resonance-based measurements made on Biacore T100/T200 instruments (GE Healthcare, Piscataway, N.J.) at 25° C. using an anti-Fc capture assay approach. Binding kinetic measurements were made in the assay buffer HBS-EP+: 10 mM Hepes, pH 7.4, 150 mM NaCl, 3 mM EDTA, 0.05% Tween 20). For example, approximately 8000 RU of anti-Fc (species specific) polyclonal antibody (Thermo Fisher Scientific Inc. Rockford, Ill.) diluted in 10 mM sodium acetate (pH 4.5) was directly immobilized across a CM5 research grade biosensor chip using a standard amine coupling kit according to manufacturer's instructions and procedures at 25 μg/ml. Unreacted moieties on the biosensor surface were blocked with ethanolamine. The test antibody to be captured as a ligand was diluted in running buffer to ˜0.5 μg/mL and injected over anti-Fc surface at a flow rate of 10 μL/min, CD98 binding and dissociation were observed under a continuous flow rate of 80 μL/min. Human and cynomolgus monkey CD98 ECDs, both with a C-terminal His-tag, are used for this study (Table 3). After each cycle the anti-Fc capture surface was regenerated using 10 mM Glycine-HCl, pH 1.5. During the assay, all measurements were referenced against the capture surface alone (i.e., with no captured test antibody) and buffer-only injections (no antigen) were used for double referencing. For kinetic analysis, rate equations derived from the 1:1 Langmuir binding model were fitted simultaneously, globally and with mass transfer term included to multiple referenced antigen binding curves using Biacore T100T200 Evaluation software.

[2] = target: T2, Cynomolgus monkey CD98 ECD with …; assay: as above
Protocol: as §1

[3] = target: T1, Human CD98 ECD with C-terminal His-tag; assay: SPR Biacore, anti-Fc capture of mAb, CD98 ECD analyte; kd set to assay limit
Protocol: as §1, with “During the assay, all measurements were referenced against the capture surface alone (i.e., with no captured test antibody) and buffer-only injections (no antigen) were used for double referencing. For kinetic analysis, rate equations derived from the 1:1 Langmuir binding model were fitted simultaneously, globally and with mass transfer term included to multiple referenced antigen binding curves using Biacore T100T200 Evaluation software.” left out

[4] = target: T2, Cynomolgus monkey CD98 ECD with …; assay: as above
Protocol: as §1, with “During the assay, all measurements were referenced against the capture surface alone (i.e., with no captured test antibody) and buffer-only injections (no antigen) were used for double referencing. For kinetic analysis, rate equations derived from the 1:1 Langmuir binding model were fitted simultaneously, globally and with mass transfer term included to multiple referenced antigen binding curves using Biacore T100T200 Evaluation software.” left out

[5] = target: T3, Human CD98 expressed on stably …; assay: flow cytometry, CHO-K1 cells expressing human CD98
Protocol: (§2) Briefly, binding kinetics of anti-CD98 chimera mAbs for human and cynomolgus CD98 ECDs were determined by surface plasmon resonance-based measurements as described in Example 4. Table 10 reported the association and dissociation rate constants for CD98 binding, kₐ (M⁻¹s⁻¹) and kd (s⁻¹), and the equilibrium dissociation constant KD (M) of the interaction between antibodies and the target antigen. Binding of anti-CD98 chimera mAbs for CD98 on cell surface was evaluated by flow cytometry against CHO-K1 cell line stably transfected to express human CD98 and 3T12 cell line stably transfected to express cynomolgus monkey CD98.

[6] = target: T1, Human CD98 ECD with C-terminal His-tag; assay: SPR Biacore, anti-Fc capture of mAb, CD98 ECD analyte; remark: listed apart in the source
Protocol: as §1
(§3) Briefly, binding kinetics of anti-CD98 chimera mAbs for human and cynomolgus CD98 ECDs were determined by surface plasmon resonance-based measurements as described in Example 4.

[7] = target: T2, Cynomolgus monkey CD98 ECD with …; assay: as above
Protocol: as §1, §3

[8] = target: T4, Cynomolgus monkey CD98 expressed on stably transfected 3T12 cells (cynomolgus monkey); assay: flow cytometry, 3T12 cells expressing cynomolgus CD98
T4 construct: whole, on cells; also called cyCD98
Protocol: as §2

Kd [1]	kon [1]	Kd [2]	kon [2]	koff [3]	koff [4]	EC50 [5]	Kd [6]	koff [6]	kon [6]	Kd [7]	koff [7]	kon [7]	EC50 [8]	Binder
≤ 0.059 nM	85000 M⁻¹ s⁻¹	≤ 0.12 nM	43000 M⁻¹ s⁻¹	≤ 5e-06 s⁻¹	≤ 5e-06 s⁻¹									Anti-CD98 murine hybridoma antibody Ab1 (antibody, V domains shown) VH: EVKLVESGGGLVQPGGSLRLSCATSGFTFTDYYMSWVRQPPGKALEWLGFIRNPANVYTTEYSASVKGRFTISRDNSQSILYLQMNTLRAEDSATYYCARASYGNSEGWFAYWGQGTLVTVSA VL: DIVMSQSPSSLAVSVGEKVTMSCKSSQNLLYNNNQKNYLAWYQQKPGQSPKLLIYWASTRESGVPDRFTGSGSGTDFTLTISSVKAEDLAVYYCQQYYSYPRTFGGGTKLEIK
						3.75 nM	3.9 nM	8.4e-05 s⁻¹	22000 M⁻¹ s⁻¹	110 nM	0.0014 s⁻¹	12000 M⁻¹ s⁻¹	18 nM	Recombinant anti-CD98 chimeric antibody chAb14 (antibody, human IgG1, V domains shown) VH: EVKLQQSGDELVRPGASVKISCKASGYTFTSYSMHWVKERPGQGLEWIGAIFPIIGTTEYNQKFKGKATLTADKSSNTANMELSRLTSEDSAVYYCARVYLSYFDYWGQGVMVTVSS VL: DIQMTQSPSFLSASVGDRVTINCKASQNINKYLDWYQRKHGEAPKLLIYNTNNLQTGIPSRFSGSGSGTDYTLTISSLQPEDVATYFCLQHSSRYTFGAGTKLELK
						6.63 nM	1.1 nM	4.6e-05 s⁻¹	43000 M⁻¹ s⁻¹	3.7 nM	7.4e-05 s⁻¹	20000 M⁻¹ s⁻¹	20.3 nM	Recombinant anti-CD98 chimeric antibody chAb15 (antibody, human IgG1, V domains shown) VH: EVQLVESGGGLVQPGRSLKLSCAASGFTFSDYTMAWVRQAPKKGLEWVATIIYDGRGTYYRDSVKGRFTISRDNAKSTLYLQMDSLRSEDTATYYCARQSDGTYYYWGYFDYWGQGVMVTVSS VL: DIVMTQSPSSLAVSAGETVTINCKSSQSLLFSGNQKNYLAWYQQKPGQSPKLLIYWASTRQSGVPDRFIGSGSGTDFTLTIRSVQAEDLAIYYCQQYYDSPYTFGAGTKLELK
						4.57 nM	28 nM	0.0013 s⁻¹	45000 M⁻¹ s⁻¹	110 nM	0.002 s⁻¹	18000 M⁻¹ s⁻¹	16.9 nM	Recombinant anti-CD98 chimeric antibody chAb11 (antibody, human IgG1, V domains shown) VH: EVQLVESGGGLVQPGRSLKLSCAASGFTFSDYAMAWVRQAPKKGLEWVAGIIYDGRGTYYRDSVKGRFTISRDNAKSTLYLQMDSLRSEDTATYYCARQGDGTYYYWGYFDYWGQGVMVTVSS VL: DIVMTQSPSSLAVSAGETVTINCRSSQSLLSSGNQKNYLAWYQQKPGQSPKLLIYWASTRQSGVPDRFIGSGSGTDFTLTISSVQAEDLAIYYCQQYYDTPYTFGAGTKLELK
